Sequences and labels used below:
B1: murine TpoR ectodomain, monomeric (TpoR_(1-479)) [modified: N-linked glycans at N117, N178, N349; tryptophan mannosylation (W465, W468); N-linked glycans at N117, N178, N349; tryptophan mannosylation (W465, W468)] [mouse] / peptide version … (parent complex)
chain 1: QDVFLLALGTEPLNCFSQTFEDLTCFWDEEEAAPSGTYQLLYAYRGEKPRACPLYSQSVPTFGTRYVCQFPAQDEVRLFFPLHLWVKNVSLNQTLIQRVLFVDSVGLPAPPRVIKARGGSQPGELQIHWEAPAPEISDFLRHELRYGPTDSSNATAPSVIQLLSTETCCPTLWMPNPVPVLDQPPCVHPTASQPHGPAPFLTVKGGSCLVSGLQAGKSYWLQLRSQPDGVSLRGSWGPWSFPVTVDLPGDAVTIGLQCFTLDLKMVTCQWQQQDRTSSQGFFRHSRTRCCPTDRDPTWEKCEEEEPRPGSQPALVSRCHFKSRNDSVIHILVEVTTAQGAVHSYLGSPFWIHQAVLLPTPSLHWREVSSGRLELEWQHQSSWAAQETCYQLRYTGEGREDWKVLEPSLGARGGTLELRPRARYSLQLRARLNGPTYQGPWSAWSPPARVSTGSE
chain 2: IEGPTLRQWLAARAGGIEGPTLRQWLAARA
B2: monomeric version of the romiplostim peptide [modified: N-terminal biotin moiety; N-terminal biotin moiety] / murine TpoR ectodomain, monomeric (TpoR_(1-479)) [modified: N-linked glycans at N117, N178, N349; tryptophan mannosylation (W465, … (parent complex)
chain 1: IEGPTLRQWLAARA
chain 2: B1 chain 1

The variants in one test derive from B1. In words: SPR; peak response of the last (highest concentration) injection over immobilised romiplostim peptide; concentration not stated for this panel; read off a plot. On the technique in general: Surface plasmon resonance follows binding to a sensor surface in real time, without labels.
Turning to chain 1 F80A, the response is roughly 220 RU.

Variants of B2 are the subject of another test. Briefly: SPR; peak response of the last injection (100 nM TpoR, top concentration of a two-fold dilution series) over immobilised peptide; read off a plot.
On to chain 1 A12L, for which the response was roughly 36 RU.

The values above are taken from publication PMC10850085 (Nature Communications, 2024).
